Here are results for one molecule from US20190300625A1 (Regeneron, published 2019).

Experiment [1] deals with human TMPRSS2 (NP_005647.3 with a V160M) expressed on MDCK/Tet-on/hTMPRSS2 cells (human, UniProt O15393 1-492). The experiment can be described thus: flow cytometry on MDCK/Tet-on/hTMPRSS2 cells, doxycycline-induced. A general note: Flow cytometry measures light scatter and fluorescence of single cells or particles in a stream.
The target in experiment [2] is cynomolgous monkey TMPRSS2 (XP_015302311.1 with S129L, N251S, I415V, R431Q, D492G) expressed on … (cynomolgous monkey; SEQ ID NO …). The experiment in a line: flow cytometry on MDCK/Tet-on/mfTMPRSS2 cells, doxycycline-induced.

Broadly, the EC50 is the concentration that produces a half-maximal response.

cynomolgous monkey TMPRSS2 (XP_015302311.1 with S129L, N251S, I415V, R431Q, D492G) expressed on … (cynomolgous monkey; SEQ ID NO …), sequence (chain, as listed by the source S129L N251S I415V R431Q D492G S129L N251S I415V R431Q D492G limits assumed): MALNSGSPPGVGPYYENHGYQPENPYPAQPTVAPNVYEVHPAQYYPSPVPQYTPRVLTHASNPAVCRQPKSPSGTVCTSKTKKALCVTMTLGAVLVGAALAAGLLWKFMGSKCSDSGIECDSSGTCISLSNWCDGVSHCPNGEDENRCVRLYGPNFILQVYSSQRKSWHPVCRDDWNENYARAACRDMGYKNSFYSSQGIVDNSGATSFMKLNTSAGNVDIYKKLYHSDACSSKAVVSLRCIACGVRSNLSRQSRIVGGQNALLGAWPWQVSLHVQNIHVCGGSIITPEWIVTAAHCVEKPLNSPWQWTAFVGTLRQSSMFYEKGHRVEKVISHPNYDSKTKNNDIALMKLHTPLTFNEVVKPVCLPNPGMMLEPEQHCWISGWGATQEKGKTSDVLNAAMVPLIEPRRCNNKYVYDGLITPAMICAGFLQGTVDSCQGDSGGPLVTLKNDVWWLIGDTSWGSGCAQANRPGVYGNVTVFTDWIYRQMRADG
human TMPRSS2 (NP_005647.3 with a V160M) expressed on MDCK/Tet-on/hTMPRSS2 cells, sequence (O15393 whole entry V160M): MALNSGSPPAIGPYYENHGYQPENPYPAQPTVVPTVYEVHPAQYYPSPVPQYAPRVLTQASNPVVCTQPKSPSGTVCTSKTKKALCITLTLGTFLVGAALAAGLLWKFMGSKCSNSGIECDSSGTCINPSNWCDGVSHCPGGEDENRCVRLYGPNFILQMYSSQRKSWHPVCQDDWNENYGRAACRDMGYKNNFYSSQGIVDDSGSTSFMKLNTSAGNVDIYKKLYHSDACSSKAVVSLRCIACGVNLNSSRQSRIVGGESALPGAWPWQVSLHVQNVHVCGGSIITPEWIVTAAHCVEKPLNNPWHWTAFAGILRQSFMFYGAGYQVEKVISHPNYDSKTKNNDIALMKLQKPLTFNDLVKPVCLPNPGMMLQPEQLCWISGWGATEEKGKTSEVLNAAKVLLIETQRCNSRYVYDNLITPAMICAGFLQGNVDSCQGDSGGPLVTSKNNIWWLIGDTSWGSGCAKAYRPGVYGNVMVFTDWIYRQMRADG

B1: H1H7017N (antibody, human IgG1, kappa, V domains shown)
VH: QVQLVESGGGVVQPGRSLRLSCAASGFTFSSYGMHWVRQSPGKGLEWVAVIWNDGSYVYYADSVKGRFTISRDISKNTLFLQMNSLRAEDTAVYYCAREGEWVLYYFDYWGQGTLVTVSS
VL: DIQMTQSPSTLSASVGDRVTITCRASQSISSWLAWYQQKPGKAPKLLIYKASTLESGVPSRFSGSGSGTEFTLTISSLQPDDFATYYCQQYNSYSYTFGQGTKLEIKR
notes: also called anti-TMPRSS2 mAb; anti-hTMPRSS2 antibody
Turning to B1, the EC50 in experiment [1] is 460 pM; in experiment [2], 1060 pM.
